Experimental data from the DeepSol protein solubility set.

Test: soluble on expression in E. coli; label from the status in PepcDB or PDB records

| Sequence | soluble on expression in E. coli |
| --- | --- |
| MGSDKIHHHHHHMKSFQLVATAASGLEAIVGKEVARLGYDPKVENGKVYFEGDLSAIARANLWLRVADRVKIVVGVFKATTFDELFEKTKALPWEDYLPLDAQFPVAGKSVKSTLYSVPDCQAIVKKAIVNRVSEKYRRSGRLMETGALFKLEVSILKDEVTLTIDTSGAGLHKRGYRLAQGSAPIKETMAAALVLLTSWHPDRPFYDPVCGSGTIPIEAALIGQNIAPGFNREFVSETWDWMPKQVWADARQEAEDLANYDQPLNIIGGDIDARLIEIAKQNAVEAGLGDLITFRQLQVADFQTEDEYGVVVANPPYGERLEDEEAVRQLYREMGIVYKRMPTWSVYVLTSYELFEEVYGKKATKKRKLYNGYLRTDLYQYWGPRKPRPKKED | not soluble |
| LDSLNELAVFVDTELKIIWANKAALEYMNMGLEKAIGVCLKVAPGISGPLVEHLNLEEIFTTGEKKSGEYTAQDGRVWFAQAIPVPDEQGKIIGILQTCRDVT | not soluble |
| MGSDKIHHHHHHMQIDDFASNLRLLCSTESSVSAVCRQIGVNRQQFSKYLSGAARPSPSNMRKIAVHFGVRPAEFMLPADEFESHPSVAGKLVGPSVTHSDRDGFESAFRGQTIPLRRYLGYYLSYFLTQSWENSIICAIVRLDEVNGLIRCRSLERSIDPDDGSLYLSKYDGRVAMLGNRIFVMEYQTLARDALVETVLYPVGRGQLQYLRGTTFGITSRQRTPFTSPVVWRYLDDFPTLRDVMRKVGRYDINSAKLDPTARSILLGGHNKGTD | not soluble |
| MRVFKTKLIRLQLTAEELDALTADFISYKRDGVLPDIFGRDALYDDSFTWPLIKFERVAHIHLANENNPFPPQLRQFSRTNDEAHLVYCQGAFDEQAWLLIAILKPEPHKLARDNNQMHKIGKMAEAFRMRF | soluble |
| SSQFWYSEETASRLAEELLQQAGEHGRIACLSAPSVYQKLKQLESVRSDGVSAVLLEFDRRFAAYGDEFVFYDYNNPLCLPEDLLPQSFDIVIADPPYLSEECLSKVTLTVKHLTKGKILLCTGAIMEEHAGKLLDLKMCSFLPRHNHNLANEFRCYVNYESRLLS | soluble |
| MAIESGYILTTPCKNEEKSLPELAESIINQTITPKLWLIINDNSTDNSAKILRDIETKYNWIRVVTSEGQKRDLSFHYAEVVRYGLSLSLEISSAEKIPVEYIGLIDADMILEKNFFEKMIDRFEQDPNLGVASGSTAYFEAENLVTEKGRDNLPIGGLRVWRRECLIETGGFPLSYSADSVSNVLALLHGWETKKFEDIIGIQTRRTGSAEGLWKGYITKGESDYYRDYHPVYVLSKFIKYSFTHPFYIGIAYMEGYINGIVKIKKKICIPEVRRYYRKKHLEIGRYYAGKFKFKLLEHHHHHH | not soluble |
| MSLIDIHSHIVFDVDDGPKSREESKALLAESYRQGVRTIVSTSHRRKGMFETPEEKIAESFLQVREIAKEVADDLVIAYGAEIYYTPDVLDKLGKKRIPTLNDSRYALIEFSMNTPYRDIHSALSKILMLGITPVIAHIERYDALGNNEKRVRELIDMGCYTQVNSSHVLKPKLFGERYKFMKKRAQYFLEQTLVHVIASDMHNLDGRPPHMAEAYDFVTQKYGEAKAQELFIDNPRKIIMDQLIEGGSHHHHHH | soluble |
| MSDSDLKEIEKNAENIKLEPAEDEVNEEDQNEITIPELPEGRVLELRLLSNWGDSHYIGLNSVEIFTSTGERAVIDKIATNVTEYTGSLESLIVQRVHCKDAEKMWCAKTTEEKIVLTLELKETCKLALIRFWNYNASRVHAQIGVRYLEMYLDGVGIFRGELECAFSADSEFTPVMGETVLFTTSDNILELIALHDVCLISLPEEPISNSSIEMLKADHLTPYRPSTCEAKDAPSTPVTIVPPPIFRQTGTAYKHDVKTLHIELLSNWGMDGLIGLTGLELVDEHSQLIDESQYTVTTSDGNSDLSKKLFNGRNLTRDPHDMWLVDFDSKNFTTISITFHDNVALKAISVWNYNASFELSYAGVKAAKIYINGKLIKNVLLRKATGFVYFDYVQDVVLDPNNTERDFVPKGISQSIGGFVFQIRLLSTWGDEFYIGLNGIELYNRKGELMKIREHNLAAFPESVNILPNIKNDLRTSNNLITQPNDTDIARNMWLTALLPNRCARVFFVFDVQTYISKIVIYNYRKTPERGVRHISVTVDDLIIFSGEIPSSTATLTGNLEINLMDI | not soluble |
| MHKTIAVLLGIVCFLPVMAKAGGAETDATDASDVKTLFFNHDDRVPVADPTQSPWDAIGQLETASGNLCTATLISPHIALTAGHCLLTPPKGKPDKAVALRFVARKGVWRYEIHGIEGRVEPSLGRRLKADGDGWIVPPAAASWDFGLVILRYPPSGITPVPLFTGDKAALTAALKAADRKVTQSGYPEDHLNALYSHQDCVVTGWAQNAVLSHQCDTLPGDSGSPLLLHTDSGWQLIGVQSSAPAAKDRWRADNRAISVTGFRDKLKALAQD | not soluble |
| MGSDKIHHHHHHMFPFERQNKIIHLLDQNSKITVPELSRILDVSISTIRNDLSSLEESGMIKKVHGGAVLLKSEEKFTNFNDRIIRNIEEKEAIAKEAATLVKNNQTIILDASSTALALAKELHGFSRLTVITSGLYTAIELKDNPNISVILTGGIVTTNSFTLEGILGANLIENIHADLCFMSAKGFTMEEGLTDFNIYETELKRLLAKRTNKLIALLDHTKMGVISTASITAAENIDLLITDNKINKALYKKFQDAGLPVKIAE | not soluble |
| SLSTIGSMMSIYSEAGDFGNIFVTGRIAFSLKYEQQTQSLVVHVKECHQLAYADEAKKRSNPYVKTYLLPDKSRQGKRKTSIKRDTVNPLYDETLRYEIPESLLAQRTLQFSVWHHGRFGRNTFLGEAEIQMDSWKLDKKLDHCLPLHGKISAESPTGLPSHKGELVVSLKYIPASKTPVGGDRKKSKGGEGGELQVWIKEAKNLTAAKAGGTSDSFVKGYLLPMRNKASKRKTPVMKKTLNPHYNHTFVYNGVRLEDLQHMCLELTVWDREPLASNDFLGGVRLGVGTGISNGEVVDWMDSTGEEVSLWQKMRQYPGSWAEGTLQLRSSMAKQKLG | soluble |
| MFLYTETDQNLQACIDACNHCYRTCLRMAMNHCLEAGGKHVEADHLRLMMNCAEICQTSLNFMLSGSRFSPKVCGVCAEICDACAKSCEQLDGMEECVQTCRQCAEHCRKMAALEHHHHHH | soluble |
| MGSDKIHHHHHHMRSSSKCSSVRFQFFVVELFMTTTQSAGEITGNVLFYNAPEPLNREQHAKLALVHKDKPYAFAAAGTAVPLTVSEFAPAALTFPVIFAGDDRVPLAVMGLNQQENLFIGADGSIEANVYIPAYIRRYPFVLANDDTQDRLIVCIDRGSDLLSEQGQTPLFDAKGEPTEYTQNCIKFCDDFEVERRRTDSFVQILKDNDLFELKKATFQPTDEVGAPVGEPVTVAEYFGVSEEKLNGLSAEKLKELQENGALAQIYAHLVSLLGWDRLINKTMMKQAEAANLN | not soluble |
| SNAGLIDESEQRLVDNIFEFEEKKIREIMVPRTDMVCIYESDSEEKILAILKEEGVTRYPVCRKNKDDILGFVHIRDLYNQKINENKIELEEILRDIIYISENLTIDKALERIRKEKLQLAIVVDEYGGTSGVVTIEDILEEIVGEIQ | soluble |
| MSLKITLFGGAGFLGSHVCDKLSEAGHDVTVVDLRPSPYLRPDQTMITGNILDEELVARAVEGADMVFNYAGIADIGEANRRPVDTARINVLGNVIALEACRKAGVKRYVFASSLYVYGKSGGFYRCSKQACELYIENYQAMHGLDYTILRYGSLYGSRADIRNAINRFVAEALEKGAITYYGSPTALREYIHVEDAALCTVEVLKPEYANENIVLSGNQPMRVGDLFKMIGEMLGKDIEVVYQHDPNSGHYQITPYAFMPKVGKKMTPILTTDLGQGILRVMEDVHREMHPDMHDVGGYLVSKDEGHHHHHH | soluble |
| MIKKVLIANRGEIAVRIIRACKEMDIETVAIYSEADKESLHVQIADEAYCVGPTISKESYLNLTNIISVAKLTGCDAIHPGYGFLAENADFAELCRECNLIFIGPSPEAISKMGTKDVARDTMKEAGVPIVPGSQGIIKNTEEAIELANQIGYPVIIKATAGGGGKGIRVARHEEELVKGIQITQQEASTAFGNPGVYLEKYVEDFRHVEIQIMADTHGNAIHLGERDCTIQRRLQKLLEESPSPALDENVRKQMGEAAVKAAVAVDYTGAGTVEFIYEYKTKSFYFMEMNTRIQVEHPVTEMVTGVDLIKEQILVASGEKLSLQQEEVQFNGWAIECRINAENPAKKFMPSPGKVEMYLPPGGFGIRVDSAVYPGYSIPPFYDSMVAKLIVHGKTREEAIAKMKRALSEFVVEGVHTTIPFHLQLLDHPDFVKGEFNTKFLEEHELVTQ | not soluble |
| MTAVTAGKLIGVGVGPGDPELLTVKAVKAIKSADVIVFHAKPNGQSAAHRIAESYIRQDQVLELLEYPVTTGVTEHPGGYAGAMAAFYASVGERLRDHLIEGKNVVVLALGDPMLYSSYQHIHRLLSEDFNAEIIPGIPSITSAADVLGKPLCEDDDVLTILPGTLPHSELVARLSDSDGAVVMKLGRTFDKVRKAMIEAGVADRAHVVVRVGMADQHSVPVMEADPQAIPYFSVAVVPSITDTNGDSGDKQQGEVVVVGLGPGGHRWTTPEVMAELKQATDIVGYSTYVNRVPQQAGQRRHLSDNKVEAERAAMALDMAKQGRKVAVVSSGDPGVFAMAAAVLETADDDQWREVPVRIIPGMTAAQAVASRVGAPLGHDFGMISLSNRLKPFEIVEKRIRALASADMAFACYNPASKERRWQVARMKEIVSEYQAGSTPVIVARAVGSDQETVTVTTLEDFDPDIVDMRTMVIIGASTTKTYQGGDGVRVFTSRWYT | not soluble |
| MGHAHSSSSNGSSQITANPHDEKTKEKVEKLFRQNNRTNRSRSLDNRTQEKLPNRPVGSSHSARFPKTRHIPVPLQGPRKSEEGPNGSISGLSRDDKRIIETCWFKCSQKQLRKCSCDMFWDILHTDEDILRLFRLDHVAPNRLKDNDYFKSHASNLALVLNLVVTNLQDNFDQAQDALQALGYQHLHLIDRTHFQTMYWDIFTDCFERNPPPSFKKGAEREVALKFHRF | not soluble |
| MKAQIIHSFGDSSVFQLEEVSKPKLLPGHVLIDVKATSVNPIDTKMRSGAVSAVAPEFPAILHGDVAGIVIEVGEGVSKFKCGDEVYGCAGGFKETGGALAEFMLADARLIAHKPNNITMEEAAALPLVAITAWESLFDRANIKSGQNVLIHGATGGVGHVAIQLAKWAGANVFTTASQQNKMEIAHRLGADVAINYKEESVQESVQEYVQKHTNGNGFEVIFDTVGGKNLDNSFEAAAVNGTVVTIAARSTHDLSPLHAKGLSLHVTFMALKILHTDKRNDCGEILTKITKIVEEGKLRPLLDSKSFTFDEVAQAHEYLESNKAIGKIVLKNVW | soluble |
| MSLARQVTAFNTGWQFKKGPFATDPMRAASQWDGKWETVEIPHTWNAMDMQVQSGSFYEGAGYYRKTQFFPHDLEGKRVFLRFEGVGACAEVYVNGKLAGTHKGGYSAFACEIGTALKLGAENEIIVKADNKARPDVIPVNQNLFGVYGGIYRPVWLIVTEQNNITVTDCASPGVYITQKDVSKKSADITVKVKLDNAGLQPAAVTLENTIYTQEGQKVGTHSRSFDLSPQGTQTYLSTFKLKNPHLWQGRKDPYLYKVVCRLMADGKVIDEVVQPLGVRKYEIVAGKGFFLNGEKYSMYGVTRHQDWWGLGSALKNEHHDFDLAAIMDVGATTVRFAHYQQSDYLYSRCDTLGLIIWAEIPCVNRVTGYETENAQSQLRELIRQSFNHPSIYVWGLHNEVYQPHEYTAALTRSLHDLAKTEDPDRYTVSVNGYGHMDHPVNLNADIQGMNRYFGWYEKKIQDIKPWVEQLEKDYPYQKLMLTEYGADANLAHQTEYLGDALNWGKPFYPETFQTKTHEYQWSIIKDHPYIIASYLWNMFDFAVPMWTRGGVPARNMKGLITFDRKTKKDSYFWYKANWSEEPVLYLTQRRNADREKRTTAVTVYSNIGTPKVYLNGQELSGIRNGYTDVHYVFDNVSLADGKNILKAVVSTKGKEYTDEIEWNYSGEKNREIDSYENKNEHSGEGHHHHHH | soluble |
